Source: patent US20180155451A1 (published 2018)

Experiments:
[1] = molecular target: FcγRIIa H (human FcγRIIa, allotype with His at position 131), extracellular domain with C-terminal His tag (human, UniProt P12318 34-217); assay: SPR (Biacore), antibody captured on antigen peptide chip, FcγR as analyte; relative to HoCon Ab GpH7-B3/GpL16-k0 = 100
[2] = molecular target: T1, FcγRIIa R (FcγRIIa, allotype R: Arg at position 131) extracellular domain with C-terminal His tag (human, UniProt P12318 34-217); assay: SPR Biacore, antibody captured, FcgR analyte; vs HeCon Ab GpH7-A5/GpH7-B3/GpL16-k0 = 100
T1 construct: extracellular domain; also called FcgRIIa R; 2aR; not shown: His tag at the C terminus
T1 sequence (looked up): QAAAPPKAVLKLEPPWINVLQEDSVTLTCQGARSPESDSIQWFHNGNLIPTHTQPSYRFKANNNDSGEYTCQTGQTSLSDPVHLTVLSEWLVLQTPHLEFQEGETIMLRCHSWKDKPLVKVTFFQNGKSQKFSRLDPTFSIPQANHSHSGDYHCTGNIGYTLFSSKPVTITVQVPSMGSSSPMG
Method: (§1) The heterodimerized antibodies He Abs in which one of the H chains was introduced with an alteration were assayed for their binding activities to each activating FcγR and inhibitory FcγR according to the method described in Example 4. […] The activating FcγRs in FIGS. 26, 27, 28, and 29 are FcγRIa, FcγRIIa (R), FcγRIIa (H), and FcγRIIIa, respectively.
(§2) Analysis of interaction between objective antibody and the FcγR was carried out using Biacore T100 (GE Healthcare). HBS-EP+ (GE Healthcare) was used as the running buffer, and the measurement temperature was set to 25° C. Chips produced by immobilizing the antigen peptide by the amine coupling method to a Series S Sencor Chip CM5 (GE Healthcare), or alternatively, chips produced by allowing preliminarily biotinylated antigen peptides to interact with and immobilize onto a Series S Sensor Chip SA (certified) (GE Healthcare) were used. Antibodies of interest were captured onto an antigen peptide-immobilized chip, and allowed to interact to each FcγR diluted with running buffer. To regenerate and repeatedly use the chip, the antibodies captured on the chip were washed off by reacting 10 mM glycine-HCl, pH 1.5.

[3] = molecular target: T2, FcγRIIb extracellular domain with C-terminal His tag (human, UniProt P31994 43-217); assay: as above
T2 construct: extracellular domain; also called FcgRIIb; 2b; not shown: His tag at the C terminus
T2 sequence (looked up): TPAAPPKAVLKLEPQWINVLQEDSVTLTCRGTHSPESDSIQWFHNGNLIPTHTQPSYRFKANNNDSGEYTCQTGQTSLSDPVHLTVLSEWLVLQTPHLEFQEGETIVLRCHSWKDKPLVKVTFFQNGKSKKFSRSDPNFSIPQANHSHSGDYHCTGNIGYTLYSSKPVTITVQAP
Method: as §1, §2

B1: GpH7-B3 variant S337_08L/GpL16-k0 (antibody, human IgG1, kappa)
heavy: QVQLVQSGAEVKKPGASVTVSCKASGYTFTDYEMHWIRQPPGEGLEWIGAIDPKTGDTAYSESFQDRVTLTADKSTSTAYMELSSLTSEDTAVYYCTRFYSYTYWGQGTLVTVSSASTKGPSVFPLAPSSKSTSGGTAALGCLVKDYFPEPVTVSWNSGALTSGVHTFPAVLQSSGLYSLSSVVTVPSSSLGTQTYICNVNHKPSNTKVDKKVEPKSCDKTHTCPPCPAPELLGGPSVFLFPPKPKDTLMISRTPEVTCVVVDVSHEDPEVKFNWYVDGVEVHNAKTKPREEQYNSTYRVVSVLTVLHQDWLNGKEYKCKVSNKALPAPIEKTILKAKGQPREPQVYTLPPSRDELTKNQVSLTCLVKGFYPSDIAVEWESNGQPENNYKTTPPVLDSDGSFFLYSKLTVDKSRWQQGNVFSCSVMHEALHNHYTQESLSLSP
light: DIVMTQSPLSLPVTPGEPASISCQASESLVHSNRNTYLHWYLQKPGQSPQLLIYKVSNRFSGVPDRFSGSGSGTDFTLKISRVEAEDVGVYYCSQNTHVPPTFGQGTKVEIERTVAAPSVFIFPPSDEQLKSGTASVVCLLNNFYPREAKVQWKVDNALQSGNSQESVTEQDSKDSTYSLSSTLTLSKADYEKHKVYACEVTHQGLSSPVTKSFNRGEC
notes: homodimerized, mutation in both H chains; also called Ho Ab
- Ho/Con_2aH [1]: 93.1 control = 100

B2: GpH7-B3 variant T335_18N/GpL16-k0 (antibody, human IgG1, kappa)
heavy: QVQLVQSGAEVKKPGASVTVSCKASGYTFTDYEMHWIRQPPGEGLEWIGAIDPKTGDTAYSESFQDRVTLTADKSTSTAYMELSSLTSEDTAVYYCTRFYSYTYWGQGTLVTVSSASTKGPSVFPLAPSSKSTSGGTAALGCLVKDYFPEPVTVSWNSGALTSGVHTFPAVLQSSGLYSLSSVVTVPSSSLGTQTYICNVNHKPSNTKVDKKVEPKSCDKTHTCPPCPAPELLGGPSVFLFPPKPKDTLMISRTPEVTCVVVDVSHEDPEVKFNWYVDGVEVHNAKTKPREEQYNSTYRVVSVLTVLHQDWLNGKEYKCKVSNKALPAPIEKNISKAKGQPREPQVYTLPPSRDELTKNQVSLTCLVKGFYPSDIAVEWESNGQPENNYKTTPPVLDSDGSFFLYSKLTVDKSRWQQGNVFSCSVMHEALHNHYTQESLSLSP
light: DIVMTQSPLSLPVTPGEPASISCQASESLVHSNRNTYLHWYLQKPGQSPQLLIYKVSNRFSGVPDRFSGSGSGTDFTLKISRVEAEDVGVYYCSQNTHVPPTFGQGTKVEIERTVAAPSVFIFPPSDEQLKSGTASVVCLLNNFYPREAKVQWKVDNALQSGNSQESVTEQDSKDSTYSLSSTLTLSKADYEKHKVYACEVTHQGLSSPVTKSFNRGEC
notes: as for B1
- Ho/Con_2aH [1]: 98 control = 100

B3: GpH7-B3 variant Y296_04F/GpL16-k0 (antibody, human IgG1, kappa)
heavy: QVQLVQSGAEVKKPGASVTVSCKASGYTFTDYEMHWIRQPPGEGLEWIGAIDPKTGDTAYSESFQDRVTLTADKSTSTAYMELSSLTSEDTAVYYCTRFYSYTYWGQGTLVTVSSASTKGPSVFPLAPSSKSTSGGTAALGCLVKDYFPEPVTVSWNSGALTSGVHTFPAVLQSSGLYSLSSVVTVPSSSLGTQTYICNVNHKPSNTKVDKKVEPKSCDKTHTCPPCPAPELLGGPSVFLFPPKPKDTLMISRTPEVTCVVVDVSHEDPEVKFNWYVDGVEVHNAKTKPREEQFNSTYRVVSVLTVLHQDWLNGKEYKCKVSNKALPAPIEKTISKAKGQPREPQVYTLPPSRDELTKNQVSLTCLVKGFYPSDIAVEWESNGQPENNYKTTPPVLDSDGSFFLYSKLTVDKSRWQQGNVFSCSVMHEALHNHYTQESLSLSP
light: DIVMTQSPLSLPVTPGEPASISCQASESLVHSNRNTYLHWYLQKPGQSPQLLIYKVSNRFSGVPDRFSGSGSGTDFTLKISRVEAEDVGVYYCSQNTHVPPTFGQGTKVEIERTVAAPSVFIFPPSDEQLKSGTASVVCLLNNFYPREAKVQWKVDNALQSGNSQESVTEQDSKDSTYSLSSTLTLSKADYEKHKVYACEVTHQGLSSPVTKSFNRGEC
notes: as for B1
- Ho/Con_2aH [1]: 95 control = 100

B4: GpH7-B3 variant V266_08L/GpL16-k0 (antibody, human IgG1, kappa)
heavy: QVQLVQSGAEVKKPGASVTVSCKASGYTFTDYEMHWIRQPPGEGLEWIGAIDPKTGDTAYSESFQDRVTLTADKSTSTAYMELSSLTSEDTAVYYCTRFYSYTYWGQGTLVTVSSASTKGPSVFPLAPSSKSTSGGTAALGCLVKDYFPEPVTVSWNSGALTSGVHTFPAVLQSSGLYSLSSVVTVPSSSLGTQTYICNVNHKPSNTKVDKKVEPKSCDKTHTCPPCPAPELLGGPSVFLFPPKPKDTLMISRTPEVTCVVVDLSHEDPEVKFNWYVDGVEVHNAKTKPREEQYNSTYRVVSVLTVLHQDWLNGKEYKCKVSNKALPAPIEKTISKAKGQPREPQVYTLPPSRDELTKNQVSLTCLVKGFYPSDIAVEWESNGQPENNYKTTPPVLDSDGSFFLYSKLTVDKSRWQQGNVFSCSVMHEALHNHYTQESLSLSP
light: DIVMTQSPLSLPVTPGEPASISCQASESLVHSNRNTYLHWYLQKPGQSPQLLIYKVSNRFSGVPDRFSGSGSGTDFTLKISRVEAEDVGVYYCSQNTHVPPTFGQGTKVEIERTVAAPSVFIFPPSDEQLKSGTASVVCLLNNFYPREAKVQWKVDNALQSGNSQESVTEQDSKDSTYSLSSTLTLSKADYEKHKVYACEVTHQGLSSPVTKSFNRGEC
notes: as for B1
- Ho/Con_2aH [1]: 91.5 control = 100

B5: GpH7-B3 variant A330_16H/GpL16-k0 (antibody, human IgG1, kappa)
heavy: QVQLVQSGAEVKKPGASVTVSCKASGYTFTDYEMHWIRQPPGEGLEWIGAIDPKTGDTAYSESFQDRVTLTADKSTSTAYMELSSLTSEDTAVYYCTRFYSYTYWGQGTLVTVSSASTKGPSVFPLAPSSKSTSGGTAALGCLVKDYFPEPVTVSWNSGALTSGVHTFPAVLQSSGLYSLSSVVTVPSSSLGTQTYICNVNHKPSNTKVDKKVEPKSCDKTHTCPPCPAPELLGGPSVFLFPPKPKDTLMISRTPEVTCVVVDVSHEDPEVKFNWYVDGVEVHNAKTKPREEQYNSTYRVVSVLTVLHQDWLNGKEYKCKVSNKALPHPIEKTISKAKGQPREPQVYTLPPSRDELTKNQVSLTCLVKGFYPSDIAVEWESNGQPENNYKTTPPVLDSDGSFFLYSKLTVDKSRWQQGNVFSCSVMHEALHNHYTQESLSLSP
light: DIVMTQSPLSLPVTPGEPASISCQASESLVHSNRNTYLHWYLQKPGQSPQLLIYKVSNRFSGVPDRFSGSGSGTDFTLKISRVEAEDVGVYYCSQNTHVPPTFGQGTKVEIERTVAAPSVFIFPPSDEQLKSGTASVVCLLNNFYPREAKVQWKVDNALQSGNSQESVTEQDSKDSTYSLSSTLTLSKADYEKHKVYACEVTHQGLSSPVTKSFNRGEC
notes: as for B1
- Ho/Con_2aH [1]: 101 control = 100

B6: GpH7-B3 variant T335_20W/GpL16-k0 (antibody, human IgG1, kappa)
heavy: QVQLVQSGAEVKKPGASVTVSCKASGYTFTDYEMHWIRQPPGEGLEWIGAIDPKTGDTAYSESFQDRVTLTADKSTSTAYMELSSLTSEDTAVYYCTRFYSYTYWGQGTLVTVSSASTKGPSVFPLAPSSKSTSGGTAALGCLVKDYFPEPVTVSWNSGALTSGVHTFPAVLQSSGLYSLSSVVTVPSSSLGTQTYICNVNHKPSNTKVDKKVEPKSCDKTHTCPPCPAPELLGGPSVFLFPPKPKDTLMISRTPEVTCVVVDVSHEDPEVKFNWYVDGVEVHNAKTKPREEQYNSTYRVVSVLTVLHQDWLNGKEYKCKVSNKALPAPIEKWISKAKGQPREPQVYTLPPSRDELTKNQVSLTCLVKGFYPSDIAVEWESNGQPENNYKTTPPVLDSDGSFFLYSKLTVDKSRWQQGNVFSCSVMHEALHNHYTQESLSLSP
light: DIVMTQSPLSLPVTPGEPASISCQASESLVHSNRNTYLHWYLQKPGQSPQLLIYKVSNRFSGVPDRFSGSGSGTDFTLKISRVEAEDVGVYYCSQNTHVPPTFGQGTKVEIERTVAAPSVFIFPPSDEQLKSGTASVVCLLNNFYPREAKVQWKVDNALQSGNSQESVTEQDSKDSTYSLSSTLTLSKADYEKHKVYACEVTHQGLSSPVTKSFNRGEC
notes: as for B1
- Ho/Con_2aH [1]: 98.7 control = 100

B7: GpH7-B3 variant S337_20W/GpL16-k0 (antibody, human IgG1, kappa)
heavy: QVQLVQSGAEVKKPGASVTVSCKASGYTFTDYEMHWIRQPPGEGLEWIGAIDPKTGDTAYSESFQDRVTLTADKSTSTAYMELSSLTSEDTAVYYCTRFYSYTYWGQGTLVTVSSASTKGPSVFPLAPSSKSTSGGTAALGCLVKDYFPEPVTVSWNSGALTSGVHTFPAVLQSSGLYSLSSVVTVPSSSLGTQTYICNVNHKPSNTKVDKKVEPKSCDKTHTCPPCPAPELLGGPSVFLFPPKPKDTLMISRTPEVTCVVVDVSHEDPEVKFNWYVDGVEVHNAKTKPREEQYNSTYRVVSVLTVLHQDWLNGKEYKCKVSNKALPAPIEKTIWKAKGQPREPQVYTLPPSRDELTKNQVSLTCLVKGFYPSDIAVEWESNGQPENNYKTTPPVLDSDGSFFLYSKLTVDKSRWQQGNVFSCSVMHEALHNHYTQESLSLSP
light: DIVMTQSPLSLPVTPGEPASISCQASESLVHSNRNTYLHWYLQKPGQSPQLLIYKVSNRFSGVPDRFSGSGSGTDFTLKISRVEAEDVGVYYCSQNTHVPPTFGQGTKVEIERTVAAPSVFIFPPSDEQLKSGTASVVCLLNNFYPREAKVQWKVDNALQSGNSQESVTEQDSKDSTYSLSSTLTLSKADYEKHKVYACEVTHQGLSSPVTKSFNRGEC
notes: as for B1
- Ho/Con_2aH [1]: 96.6 control = 100

B8: GpH7-B3 variant Y296_16H/GpL16-k0 (antibody, human IgG1, kappa)
heavy: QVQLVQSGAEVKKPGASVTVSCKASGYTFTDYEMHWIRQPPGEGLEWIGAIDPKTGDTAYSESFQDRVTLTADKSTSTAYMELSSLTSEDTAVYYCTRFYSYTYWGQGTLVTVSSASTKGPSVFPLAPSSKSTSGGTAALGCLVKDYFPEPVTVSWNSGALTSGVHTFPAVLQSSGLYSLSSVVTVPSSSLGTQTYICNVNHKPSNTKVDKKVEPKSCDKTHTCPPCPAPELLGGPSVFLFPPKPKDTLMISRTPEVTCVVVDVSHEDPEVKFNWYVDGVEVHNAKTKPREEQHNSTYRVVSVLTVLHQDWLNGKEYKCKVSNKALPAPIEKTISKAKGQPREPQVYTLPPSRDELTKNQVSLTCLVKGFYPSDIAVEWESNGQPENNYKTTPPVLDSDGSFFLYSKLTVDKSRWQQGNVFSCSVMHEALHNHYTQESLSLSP
light: DIVMTQSPLSLPVTPGEPASISCQASESLVHSNRNTYLHWYLQKPGQSPQLLIYKVSNRFSGVPDRFSGSGSGTDFTLKISRVEAEDVGVYYCSQNTHVPPTFGQGTKVEIERTVAAPSVFIFPPSDEQLKSGTASVVCLLNNFYPREAKVQWKVDNALQSGNSQESVTEQDSKDSTYSLSSTLTLSKADYEKHKVYACEVTHQGLSSPVTKSFNRGEC
notes: as for B1
- Ho/Con_2aH [1]: 85.7 control = 100

B9: GpH7-B3 variant Y296_09D/GpL16-k0 (antibody, human IgG1, kappa)
heavy: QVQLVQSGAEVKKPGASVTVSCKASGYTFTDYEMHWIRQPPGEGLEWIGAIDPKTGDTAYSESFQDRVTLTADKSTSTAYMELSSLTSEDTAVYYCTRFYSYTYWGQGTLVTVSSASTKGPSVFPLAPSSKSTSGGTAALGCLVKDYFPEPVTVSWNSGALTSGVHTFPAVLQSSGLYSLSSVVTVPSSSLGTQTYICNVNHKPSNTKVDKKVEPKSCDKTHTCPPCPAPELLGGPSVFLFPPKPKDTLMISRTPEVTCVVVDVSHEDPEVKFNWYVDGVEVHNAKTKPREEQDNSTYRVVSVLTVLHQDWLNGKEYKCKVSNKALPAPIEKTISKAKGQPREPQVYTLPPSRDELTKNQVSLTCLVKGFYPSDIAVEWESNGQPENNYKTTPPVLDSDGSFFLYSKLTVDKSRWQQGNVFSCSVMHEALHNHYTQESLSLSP
light: DIVMTQSPLSLPVTPGEPASISCQASESLVHSNRNTYLHWYLQKPGQSPQLLIYKVSNRFSGVPDRFSGSGSGTDFTLKISRVEAEDVGVYYCSQNTHVPPTFGQGTKVEIERTVAAPSVFIFPPSDEQLKSGTASVVCLLNNFYPREAKVQWKVDNALQSGNSQESVTEQDSKDSTYSLSSTLTLSKADYEKHKVYACEVTHQGLSSPVTKSFNRGEC
notes: as for B1
- Ho/Con_2aH [1]: 99.9 control = 100

B10: GpH7-A5/GpH7-B3 variant Y300_18N/GpL16-k0 (antibody, human IgG1, kappa)
heavy 1: not shown
heavy 2: not shown
light: DIVMTQSPLSLPVTPGEPASISCQASESLVHSNRNTYLHWYLQKPGQSPQLLIYKVSNRFSGVPDRFSGSGSGTDFTLKISRVEAEDVGVYYCSQNTHVPPTFGQGTKVEIERTVAAPSVFIFPPSDEQLKSGTASVVCLLNNFYPREAKVQWKVDNALQSGNSQESVTEQDSKDSTYSLSSTLTLSKADYEKHKVYACEVTHQGLSSPVTKSFNRGEC
notes: He Ab: alteration in the GpH7-B3 H chain only; also called He Ab
- He/Con_2aR [2]: 100 control = 100
- He/Con_2b [3]: 82.7 control = 100

B11: GpH7-A5/GpH7-B3 variant Y296_18N/GpL16-k0 (antibody, human IgG1, kappa)
heavy 1: not shown
heavy 2: not shown
light: DIVMTQSPLSLPVTPGEPASISCQASESLVHSNRNTYLHWYLQKPGQSPQLLIYKVSNRFSGVPDRFSGSGSGTDFTLKISRVEAEDVGVYYCSQNTHVPPTFGQGTKVEIERTVAAPSVFIFPPSDEQLKSGTASVVCLLNNFYPREAKVQWKVDNALQSGNSQESVTEQDSKDSTYSLSSTLTLSKADYEKHKVYACEVTHQGLSSPVTKSFNRGEC
notes: as for B10
- He/Con_2aR [2]: 104 control = 100
- He/Con_2b [3]: 91.5 control = 100

B12: GpH7-A5/GpH7-B3 variant Y296_13S/GpL16-k0 (antibody, human IgG1, kappa)
heavy 1: not shown
heavy 2: not shown
light: DIVMTQSPLSLPVTPGEPASISCQASESLVHSNRNTYLHWYLQKPGQSPQLLIYKVSNRFSGVPDRFSGSGSGTDFTLKISRVEAEDVGVYYCSQNTHVPPTFGQGTKVEIERTVAAPSVFIFPPSDEQLKSGTASVVCLLNNFYPREAKVQWKVDNALQSGNSQESVTEQDSKDSTYSLSSTLTLSKADYEKHKVYACEVTHQGLSSPVTKSFNRGEC
notes: as for B10
- He/Con_2aR [2]: 102 control = 100
- He/Con_2b [3]: 86.3 control = 100

B13: GpH7-A5/GpH7-B3 variant Y296_14T/GpL16-k0 (antibody, human IgG1, kappa)
heavy 1: not shown
heavy 2: not shown
light: DIVMTQSPLSLPVTPGEPASISCQASESLVHSNRNTYLHWYLQKPGQSPQLLIYKVSNRFSGVPDRFSGSGSGTDFTLKISRVEAEDVGVYYCSQNTHVPPTFGQGTKVEIERTVAAPSVFIFPPSDEQLKSGTASVVCLLNNFYPREAKVQWKVDNALQSGNSQESVTEQDSKDSTYSLSSTLTLSKADYEKHKVYACEVTHQGLSSPVTKSFNRGEC
notes: as for B10
- He/Con_2aR [2]: 103 control = 100
- He/Con_2b [3]: 88.2 control = 100

B14: GpH7-A5/GpH7-B3 variant Y296_19Q/GpL16-k0 (antibody, human IgG1, kappa)
heavy 1: not shown
heavy 2: not shown
light: DIVMTQSPLSLPVTPGEPASISCQASESLVHSNRNTYLHWYLQKPGQSPQLLIYKVSNRFSGVPDRFSGSGSGTDFTLKISRVEAEDVGVYYCSQNTHVPPTFGQGTKVEIERTVAAPSVFIFPPSDEQLKSGTASVVCLLNNFYPREAKVQWKVDNALQSGNSQESVTEQDSKDSTYSLSSTLTLSKADYEKHKVYACEVTHQGLSSPVTKSFNRGEC
notes: as for B10
- He/Con_2aR [2]: 102 control = 100
- He/Con_2b [3]: 89.3 control = 100

B15: GpH7-A5/GpH7-B3 variant Y296_16H/GpL16-k0 (antibody, human IgG1, kappa)
heavy 1: not shown
heavy 2: not shown
light: DIVMTQSPLSLPVTPGEPASISCQASESLVHSNRNTYLHWYLQKPGQSPQLLIYKVSNRFSGVPDRFSGSGSGTDFTLKISRVEAEDVGVYYCSQNTHVPPTFGQGTKVEIERTVAAPSVFIFPPSDEQLKSGTASVVCLLNNFYPREAKVQWKVDNALQSGNSQESVTEQDSKDSTYSLSSTLTLSKADYEKHKVYACEVTHQGLSSPVTKSFNRGEC
notes: as for B10
- He/Con_2aR [2]: 105 control = 100
- He/Con_2b [3]: 92.2 control = 100

B16: GpH7-A5/GpH7-B3 variant Y296_10E/GpL16-k0 (antibody, human IgG1, kappa)
heavy 1: not shown
heavy 2: not shown
light: DIVMTQSPLSLPVTPGEPASISCQASESLVHSNRNTYLHWYLQKPGQSPQLLIYKVSNRFSGVPDRFSGSGSGTDFTLKISRVEAEDVGVYYCSQNTHVPPTFGQGTKVEIERTVAAPSVFIFPPSDEQLKSGTASVVCLLNNFYPREAKVQWKVDNALQSGNSQESVTEQDSKDSTYSLSSTLTLSKADYEKHKVYACEVTHQGLSSPVTKSFNRGEC
notes: as for B10
- He/Con_2aR [2]: 103 control = 100
- He/Con_2b [3]: 98 control = 100

B17: GpH7-A5/GpH7-B3 variant Y300_04F/GpL16-k0 (antibody, human IgG1, kappa)
heavy 1: not shown
heavy 2: not shown
light: DIVMTQSPLSLPVTPGEPASISCQASESLVHSNRNTYLHWYLQKPGQSPQLLIYKVSNRFSGVPDRFSGSGSGTDFTLKISRVEAEDVGVYYCSQNTHVPPTFGQGTKVEIERTVAAPSVFIFPPSDEQLKSGTASVVCLLNNFYPREAKVQWKVDNALQSGNSQESVTEQDSKDSTYSLSSTLTLSKADYEKHKVYACEVTHQGLSSPVTKSFNRGEC
notes: as for B10
- He/Con_2aR [2]: 108 control = 100
- He/Con_2b [3]: 94.8 control = 100
